Patent publication US20190282663A1 (KEROS THERAPEUTICS, published 2019)

T1: Activin A (UniProt P08476 311-426)
T1 sequence (looked up): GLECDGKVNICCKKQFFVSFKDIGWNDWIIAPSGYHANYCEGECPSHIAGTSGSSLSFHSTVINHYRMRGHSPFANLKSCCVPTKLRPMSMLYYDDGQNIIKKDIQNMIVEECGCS

T2: Activin B (UniProt P09529 293-407)
T2 sequence (looked up): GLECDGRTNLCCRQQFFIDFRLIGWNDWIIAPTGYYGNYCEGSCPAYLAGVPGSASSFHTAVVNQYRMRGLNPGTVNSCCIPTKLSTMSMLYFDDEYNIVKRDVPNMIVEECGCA

B1: BMP-9 (ligand, UniProt Q9UK05 320-429, looked up)
chain: SAGAGSHCQKTSLRVNFEDIGWDSWIIAPKEYEAYECKGGCFFPLADDVTPTKHAIVQTLVHLKFPTKVGKACCVPTKLSPISVLYKDDMGVPTLKYHYEGMSVAECGCR
notes: also called bone morphogenetic protein 9
B2: growth differentiation factor 11 (GDF11) (ligand, UniProt O95390 299-407, looked up)
chain: NLGLDCDEHSSESRCCRYPLTVDFEAFGWDWIIAPKRYKANYCSGQCEYMFMQKYPHTHLVQQANPRGSAGPCCTPTKMSPINMLYFNDKQQIIYGKIPGMVVDRCGCS
B3: ActRIIb (SEQ ID NO: 74) (receptor)
chain: GRGEAETRECIYYNANWELERTNQSGLERCEGEQDKRLHCYASWRNSSGTIELVKKGCWLDDFNCYDRQECVATEENPQVYFCCCEGNFCNERFTHLPEAGGPEVTYEPPPTAPT
notes: also called Human ActRIIb, extracellular portion; not shown: Carrier and linker

How the values were obtained:
[1] = target: B2; assay: SPR (Biacore 3000), receptor captured on chip, ligand in solution
[2] = target: T1, Activin A; assay: as above
[3] = target: B1; assay: as above
[4] = target: T2, Activin B; assay: as above
[5] = target: B3; assay: as above
[6] = target: B2; assay: SPR (Biacore 3000), receptor captured on chip by anti-mouse antibody, ligand in solution
[7] = target: T1, Activin A; assay: as above
[8] = target: T2, Activin B; assay: as above

Kd [1] | Kd [2] | Kd [3] | Kd [4] | Kd [5] | binding result [6] | binding result [7] | binding result [8] | Binder
0.113 nM | 0.135 nM | 5 nM | 0.039 nM | – | – | – | – | ActRIIa/bmax2 variant (SEQ ID NO: 71) (receptor, not shown: Carrier and linker) GAILGRSETQECLFYNANWELERTNQTGVERCEGEKDKRLHCYATWRNISGSIEIVKKGCWLDDFNCYDRTDCVETEENPQVYFCCCEGNMCNEKFSYFPEMEVTQPTSNP
– | – | – | – | 0.278 nM | – | – | – | B1
– | – | – | – | 0.115 nM | – | – | – | B2
– | – | – | – | – | no binding | no binding | no binding | ActRIIb/a variant (SEQ ID NO: 149) (receptor, Engineered extracellular ActRIIb variant; also called extracellular ActRIIb variant; not shown: Carrier and linker) GRGEAETRECIFYNANWEKDRTNQSGLEPCYGDQDKRRHCFASWKNSSGTIELVKQGCWLDDINCYDRQECVAKKDSPEVYFCCCEGNFCNERFTHLPEAGGPEVTYEPPPTAPT
0.115 nM | 0.213 nM | 10 nM | 0.0123 nM | – | – | – | – | ActRIIa/bΔ9 variant (SEQ ID NO: 58) (receptor, Engineered extracellular ActRIIa variant; not shown: Fusion partner and its linker) GAILGRSETQECLFYNANWELDRTNQTGVERCEGEKDKRLHCYATWRNISGSIEIVKKGCWLDDFNCYDRTDCVETKENPQVYFCCCEGNMCNEKFSYFPEMEVTQPTS
0.186 nM | 0.542 nM | 4 nM | 0.103 nM | – | – | – | – | ActRIIa/b variant (SEQ ID NO: 69) (receptor, Engineered extracellular ActRIIa variant; not shown: Carrier and linker) GAILGRSETQECLFYNANWELERTNQTGVERCEGEKDKRLHCYATWRNISGSIEIVKKGCWLDDFNCYDRTDCVETEENPQVYFCCCEGNMCNEKFSYFPEMEVTQPTS
0.114 nM | 0.31 nM | 17 nM | 0.088 nM | – | – | – | – | ActRIIa/bΔ9 min variant (SEQ ID NO: 6) (receptor, Engineered extracellular ActRIIa variant; not shown: Fusion partner and its linker) GAILGRSETQECLFYNANWELDRTNQTGVEPCEGEKDKRLHCFATWKNISGSIEIVKKGCWLDDINCYDRTDCVETKENPQVYFCCCEGNMCNEKFSYFPEMEVTQPTS
0.394 nM | 0.375 nM | 14 to 20 nM | 0.254 nM | – | – | – | – | ActRIIa/bΔ9m4 variant (SEQ ID NO: 44) (receptor, Engineered extracellular ActRIIa variant; not shown: Carrier and linker) GAILGRSETQECLFYNANWELDRTNQTGVEPCEGEKDKRLHCYATWRNISGSIEIVKKGCWLDDFNCYDRTDCVETKENPQVYFCCCEGNMCNEKFSYFPEMEVTQPTS
0.117 nM | 0.071 nM | 1.2 nM | 0.0725 nM | – | – | – | – | ActRIIa/bΔ9m3 variant (SEQ ID NO: 41) (receptor, Engineered extracellular ActRIIa variant; not shown: Fusion partner and its linker) GAILGRSETQECLFYNANWELDRTNQTGVERCEGEKDKRLHCFATWRNISGSIEIVKKGCWLDDFNCYDRTDCVETKENPQVYFCCCEGNMCNEKFSYFPEMEVTQPTS
0.236 nM | 0.232 nM | 5.6 nM | 0.097 nM | – | – | – | – | ActRIIa/bmax1 variant (SEQ ID NO: 70) (receptor, Engineered extracellular ActRIIa variant; not shown: Carrier and linker) GAILGRSETQECLYYNANWELERTNQTGVERCEGEQDKRLHCYATWRNISGSIEIVKKGCWLDDFNCYDRTDCVETEENPQVYFCCCEGNMCNEKFSYFPEMEVTQPTS
0.222 nM | 0.17 nM | 13 to 18 nM | 0.104 nM | – | – | – | – | ActRIIa/bΔ9m2 variant (SEQ ID NO: 38) (receptor, Engineered extracellular ActRIIa variant; not shown: Fusion partner and its linker) GAILGRSETQECLFYNANWELDRTNQTGVERCEGEKDKRLHCYATWRNISGSIEIVKKGCWLDDINCYDRTDCVETKENPQVYFCCCEGNMCNEKFSYFPEMEVTQPTS
– | 0.242 nM | 26 nM | 0.282 nM | – | – | – | – | ActRIIa/b+ variant (SEQ ID NO: 150) (receptor, not shown: Fusion partner and its linker) GAILGRSETQECLFYNANWELERTNQTGVERCEGEKDKRLHCYATWRNISGSIEIVAKGCWLDDFNCYDRTDCVETEENPQVYFCCCEGNMCNEKFSYFPEMEVTQPTS
0.214 nM | 0.089 nM | 3.3 nM | 0.043 nM | – | – | – | – | ActRIIa/bmax3 variant (SEQ ID NO: 72) (receptor, not shown: Carrier and linker) GAILGRSETQECLFYNANWELERTNQTGVERCEGEKDKRLHCYATWRNISGSIEIVKKGCWLDDFNCYDRTDCVETEENPQVYFCCCEGNMCNEKFSYFPEMEVTQPTSNPVTPK
– | 0.063 nM | – | 0.023 nM | – | – | – | – | B3
